Source: US20240400613A1 (SUN PHARMACEUTICAL INDUSTRIES, published 2024)
Starred links: 1 amine or outer side, 2 acyl side, 3 side chain; linkers in the order of their positions; H or OH if unused. Non-standard residues stand in square brackets, D forms with d. Groups on a side chain read outwards from the residue. No end group written: not given here. *: point of attachment. C20 diacid = O=C(O)CCCCCCCCCCCCCCCCCCC(=O)*; γGlu = O=C(O)[C@H](CCC(=O)[*:2])N[*:1]; Nle = CCCC[C@H](N)C(=O)O; Nva = CCC[C@H](N)C(=O)O; AEEA = NCCOCCOCC(=O)O; Aib = CC(C)(N)C(=O)O

T1: GIPR (UniProt P48546 22-466, limits assumed)
T1 sequence (looked up): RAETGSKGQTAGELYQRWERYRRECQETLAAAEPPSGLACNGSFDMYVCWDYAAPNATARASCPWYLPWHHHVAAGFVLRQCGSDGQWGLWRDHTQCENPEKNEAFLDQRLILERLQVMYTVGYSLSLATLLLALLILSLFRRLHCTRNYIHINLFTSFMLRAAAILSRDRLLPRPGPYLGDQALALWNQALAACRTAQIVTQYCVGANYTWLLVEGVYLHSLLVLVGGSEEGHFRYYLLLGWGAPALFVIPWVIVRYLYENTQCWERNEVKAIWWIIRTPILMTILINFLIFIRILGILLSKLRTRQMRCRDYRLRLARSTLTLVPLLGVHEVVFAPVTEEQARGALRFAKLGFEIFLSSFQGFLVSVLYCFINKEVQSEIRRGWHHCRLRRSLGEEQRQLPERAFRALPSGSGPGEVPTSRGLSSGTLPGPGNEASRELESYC

B1: Compound 6 (peptide)
peptide: Y[Aib]EGTFTSDYSI[Nva]LDKIAQK([AEEA-AEEA-γGlu-C20 diacid])AFVQWLIAGGPSSGAPPPS-NH2
modifications: N-terminus assumed
SMILES: CCC[C@H](NC(=O)[C@@H](NC(=O)[C@H](CO)NC(=O)[C@H](Cc1ccc(O)cc1)NC(=O)[C@H](CC(=O)O)NC(=O)[C@H](CO)NC(=O)[C@@H](NC(=O)[C@H](Cc1ccccc1)NC(=O)[C@@H](NC(=O)CNC(=O)[C@H](CCC(=O)O)NC(=O)C(C)(C)NC(=O)[C@@H](N)Cc1ccc(O)cc1)[C@@H](C)O)[C@@H](C)O)[C@@H](C)CC)C(=O)N[C@@H](CC(C)C)C(=O)N[C@@H](CC(=O)O)C(=O)N[C@@H](CCCCN)C(=O)N[C@H](C(=O)N[C@@H](C)C(=O)N[C@@H](CCC(N)=O)C(=O)N[C@@H](CCCCNC(=O)COCCOCCNC(=O)COCCOCCNC(=O)CC[C@H](NC(=O)CCCCCCCCCCCCCCCCCCC(=O)O)C(=O)O)C(=O)N[C@@H](C)C(=O)N[C@@H](Cc1ccccc1)C(=O)N[C@H](C(=O)N[C@@H](CCC(N)=O)C(=O)N[C@@H](Cc1c[nH]c2ccccc12)C(=O)N[C@@H](CC(C)C)C(=O)N[C@H](C(=O)N[C@@H](C)C(=O)NCC(=O)NCC(=O)N1CCC[C@H]1C(=O)N[C@@H](CO)C(=O)N[C@@H](CO)C(=O)NCC(=O)N[C@@H](C)C(=O)N1CCC[C@H]1C(=O)N1CCC[C@H]1C(=O)N1CCC[C@H]1C(=O)N[C@@H](CO)C(N)=O)[C@@H](C)CC)C(C)C)[C@@H](C)CC
B2: Compound 1 (peptide)
peptide: Y[Aib]EGTFTSDYSI[Nva]LDKIAQK([AEEA-Aib-γGlu-C20 diacid])AFVQWLIAGGPSSGAPPPS-NH2
modifications: N-terminus assumed
SMILES: CCC[C@H](NC(=O)[C@@H](NC(=O)[C@H](CO)NC(=O)[C@H](Cc1ccc(O)cc1)NC(=O)[C@H](CC(=O)O)NC(=O)[C@H](CO)NC(=O)[C@@H](NC(=O)[C@H](Cc1ccccc1)NC(=O)[C@@H](NC(=O)CNC(=O)[C@H](CCC(=O)O)NC(=O)C(C)(C)NC(=O)[C@@H](N)Cc1ccc(O)cc1)[C@@H](C)O)[C@@H](C)O)[C@@H](C)CC)C(=O)N[C@@H](CC(C)C)C(=O)N[C@@H](CC(=O)O)C(=O)N[C@@H](CCCCN)C(=O)N[C@H](C(=O)N[C@@H](C)C(=O)N[C@@H](CCC(N)=O)C(=O)N[C@@H](CCCCNC(=O)COCCOCCNC(=O)C(C)(C)NC(=O)CC[C@H](NC(=O)CCCCCCCCCCCCCCCCCCC(=O)O)C(=O)O)C(=O)N[C@@H](C)C(=O)N[C@@H](Cc1ccccc1)C(=O)N[C@H](C(=O)N[C@@H](CCC(N)=O)C(=O)N[C@@H](Cc1c[nH]c2ccccc12)C(=O)N[C@@H](CC(C)C)C(=O)N[C@H](C(=O)N[C@@H](C)C(=O)NCC(=O)NCC(=O)N1CCC[C@H]1C(=O)N[C@@H](CO)C(=O)N[C@@H](CO)C(=O)NCC(=O)N[C@@H](C)C(=O)N1CCC[C@H]1C(=O)N1CCC[C@H]1C(=O)N1CCC[C@H]1C(=O)N[C@@H](CO)C(N)=O)[C@@H](C)CC)C(C)C)[C@@H](C)CC
B3: Compound 11 (peptide)
peptide: Y[Aib]EGTFTSDYSI[Nle]LDKIAQK([AEEA-Aib-γGlu-C20 diacid])AFVQWLIAGGPSSGAPPPS-NH2
modifications: N-terminus assumed
SMILES: CCCC[C@H](NC(=O)[C@@H](NC(=O)[C@H](CO)NC(=O)[C@H](Cc1ccc(O)cc1)NC(=O)[C@H](CC(=O)O)NC(=O)[C@H](CO)NC(=O)[C@@H](NC(=O)[C@H](Cc1ccccc1)NC(=O)[C@@H](NC(=O)CNC(=O)[C@H](CCC(=O)O)NC(=O)C(C)(C)NC(=O)[C@@H](N)Cc1ccc(O)cc1)[C@@H](C)O)[C@@H](C)O)[C@@H](C)CC)C(=O)N[C@@H](CC(C)C)C(=O)N[C@@H](CC(=O)O)C(=O)N[C@@H](CCCCN)C(=O)N[C@H](C(=O)N[C@@H](C)C(=O)N[C@@H](CCC(N)=O)C(=O)N[C@@H](CCCCNC(=O)COCCOCCNC(=O)C(C)(C)NC(=O)CC[C@H](NC(=O)CCCCCCCCCCCCCCCCCCC(=O)O)C(=O)O)C(=O)N[C@@H](C)C(=O)N[C@@H](Cc1ccccc1)C(=O)N[C@H](C(=O)N[C@@H](CCC(N)=O)C(=O)N[C@@H](Cc1c[nH]c2ccccc12)C(=O)N[C@@H](CC(C)C)C(=O)N[C@H](C(=O)N[C@@H](C)C(=O)NCC(=O)NCC(=O)N1CCC[C@H]1C(=O)N[C@@H](CO)C(=O)N[C@@H](CO)C(=O)NCC(=O)N[C@@H](C)C(=O)N1CCC[C@H]1C(=O)N1CCC[C@H]1C(=O)N1CCC[C@H]1C(=O)N[C@@H](CO)C(N)=O)[C@@H](C)CC)C(C)C)[C@@H](C)CC
B4: Compound 10 (peptide)
peptide: YXEGTFTSDYSIXLDKIAQKAFVQWLIAGGPSSGAPPPS
modifications: Aib at position 2; L-homoalanine (2-aminobutyric acid) at position 13; Lys 20 side chain (epsilon amino) acylated with Moiety A; C-terminal amide (Ser-NH2)
B5: Compound 3 (peptide)
peptide: Y[Aib]EGTFTSDYSILLDKIAQK([AEEA-Aib-γGlu-C20 diacid])AFVQWLIAGGPSSGAPPPS-NH2
modifications: N-terminus assumed
SMILES: CC[C@H](C)[C@H](NC(=O)[C@H](CCCCN)NC(=O)[C@H](CC(=O)O)NC(=O)[C@H](CC(C)C)NC(=O)[C@H](CC(C)C)NC(=O)[C@@H](NC(=O)[C@H](CO)NC(=O)[C@H](Cc1ccc(O)cc1)NC(=O)[C@H](CC(=O)O)NC(=O)[C@H](CO)NC(=O)[C@@H](NC(=O)[C@H](Cc1ccccc1)NC(=O)[C@@H](NC(=O)CNC(=O)[C@H](CCC(=O)O)NC(=O)C(C)(C)NC(=O)[C@@H](N)Cc1ccc(O)cc1)[C@@H](C)O)[C@@H](C)O)[C@@H](C)CC)C(=O)N[C@@H](C)C(=O)N[C@@H](CCC(N)=O)C(=O)N[C@@H](CCCCNC(=O)COCCOCCNC(=O)C(C)(C)NC(=O)CC[C@H](NC(=O)CCCCCCCCCCCCCCCCCCC(=O)O)C(=O)O)C(=O)N[C@@H](C)C(=O)N[C@@H](Cc1ccccc1)C(=O)N[C@H](C(=O)N[C@@H](CCC(N)=O)C(=O)N[C@@H](Cc1c[nH]c2ccccc12)C(=O)N[C@@H](CC(C)C)C(=O)N[C@H](C(=O)N[C@@H](C)C(=O)NCC(=O)NCC(=O)N1CCC[C@H]1C(=O)N[C@@H](CO)C(=O)N[C@@H](CO)C(=O)NCC(=O)N[C@@H](C)C(=O)N1CCC[C@H]1C(=O)N1CCC[C@H]1C(=O)N1CCC[C@H]1C(=O)N[C@@H](CO)C(N)=O)[C@@H](C)CC)C(C)C

Columns and labels:
GIPR = molecular target: T1, GIPR; assay: cell-based or functional assay
GLP-1R = GLP-1R (UniProt P43220 24-463, limits assumed); assay: cell-based or functional assay

Molecule	Half effective Concentration (EC50), cellular cAMP assay on GIPR-expressing cells (GIPR) [nM]	Half effective Concentration (EC50), cellular cAMP assay on GLP-1R-expressing cells (GLP-1R) [nM]
Tirzepatide (peptide)	1.9	6.8
B1	0.0177	0.0196
B2	0.0276	0.0124
B3	0.0064	0.0059
B4	0.0073	0.0036
B5	0.0128	0.0327
